IC50 data for two molecules are collected here from US20190282654A1 (OHIO STATE INNOVATION FOUNDATION, published 2019).

This assay deals with T1, GST-NEMO(1-196) (UniProt Q9Y6K9 1-196).
T1 construct: range 1-196; Expressed in E. coli from pGEX4T3-GST-NEMO(1-196) and purified on glutathione-Sepharose; Used with the GST tag in the HTRF assay (30 nM); also called Recombinant GST-NEMO; NF-κB essential modifier; not shown: glutathione S-transferase (GST) tag encoded by the pGEX4T3 vector
Put plainly: HTRF competition, NEMO-IKK interaction (FIG. 6). As for the experimental part:
The plate was incubated for 2 h at room temperature. […] The data was analyzed using GraphPad Prism 6.0 and IC₅₀ values were obtained by fitting the data to the dose-response inhibition curves.
A general note: Time-resolved FRET reads energy transfer from a long-lived donor to a nearby acceptor.

Square brackets hold non-standard residues; d marks the D form. Ends that are not written are not given here. 2Nal = N[C@@H](Cc1ccc2ccccc2c1)C(=O)O

T1 sequence (Q9Y6K9 1-196): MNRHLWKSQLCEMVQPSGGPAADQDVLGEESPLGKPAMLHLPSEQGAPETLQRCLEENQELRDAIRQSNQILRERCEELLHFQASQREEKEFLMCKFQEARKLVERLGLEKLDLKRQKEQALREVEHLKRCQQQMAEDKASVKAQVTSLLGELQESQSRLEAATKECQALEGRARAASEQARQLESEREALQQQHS

Usually IC50 stands for the concentration needed to halve the response being measured. A low value points to greater potency in that assay. For the molecule RRRR[2Nal]FCALDWSWLQC (cysteine pairing not given here) [RRRRΦFCALDWSWLQC], the IC50 was 1400 nM. For RRRR[2Nal]FTALDWSWLQT [RRRRΦFTALDWSWLQT], the IC50 worked out at 1600 nM.
